The results in this text go back to FireProtDB (doi:10.1016/j.jmb.2009.07.074).

To fix the notation:
B1: Cytochrome c', P00149 (parent)
chain: MKLRIATIAGLVVLGSGFAVAQTDVIAQRKAILKQMGEATKPIAAMLKGEAKFDQAVVQKSLAAIADDSKKLPALFPADSKTGGDTAALPKIWEDKAKFDDLFAKLAAAATAAQGTIKDEASLKANIGGVLGNCKSCHDDFRAKKS

Variants of B1 are the subject of the data set. Particulars: Rhodopseudomonas palustris (strain ATCC BAA-98 / CGA009); pH 6.5; 25 °C; GdnHCl; CD; MES 20 mM; NaCl 40 mM; structure 1A7V; whole UniProt chain shown.

As for MKLRIATIAGLVVLGSGFAVAQTDVIAQRKAILKQMGEATKPIAAMLKGEAKFDQAVVQKSLAAIADDSKKLPALFPADSKTGGDTAALPKIWEDKAKFDDLFAKLAAAATHAQGTIKDEASLKANIGGVLGNCKSCHDDFRAKKS [A112H], the denaturant m value worked out at 5.75 kcal/mol/M, the “denaturant midpoint (higher = more stable)” value (“denaturant midpoint” for short) came to 1.23 M and the unfolding free energy was determined as 7.07 kcal/mol.

Consider MKLRIATIAGLVVLGSGFAVAQTDVIAQRKAILKQMGEATKPIAAMLKGEAKFDQAVVQKSLAAIADDSKKLPALFPADSKTGGDTAALPKIWHDKAKFDDLFAKLAAAATAAQGTIKDEASLKANIGGVLGNCKSCHDDFRAKKS [E94H], for which the denaturant m value is 5.08 kcal/mol/M, the “denaturant midpoint” value was 1.13 M and the unfolding free energy was 5.76 kcal/mol.

In the case of MKLRIATIAGLVVLGSGFAVAQTHVIAQRKAILKQMGEATKPIAAMLKGEAKFDQAVVQKSLAAIADDSKKLPALFPADSKTGGDTAALPKIWEDKAKFDDLFAKLAAAATAAQGTIKDEASLKANIGGVLGNCKSCHDDFRAKKS [D24H], the denaturant m value was 5.08 kcal/mol/M, the “denaturant midpoint” value turned out to be 1.46 M and the unfolding free energy worked out at 7.41 kcal/mol.

Take MKLRIATIAGLVVLGSGFAVAQTDVIAQRKAILKQMGEATKPIAAMLKGEAKFDQAVVQKSLAAIADDSHKLPALFPADSKTGGDTAALPKIWEDKAKFDDLFAKLAAAATAAQGTIKDEASLKANIGGVLGNCKSCHDDFRAKKS [K70H]: the denaturant m value is 4.66 kcal/mol/M, the “denaturant midpoint” value was 1.45 M and the unfolding free energy is 6.75 kcal/mol.

In the case of MKLRIATIAGLVVLGSGFAVAQTDVIAQRKAILHQMGEATKPIAAMLKGEAKFDQAVVQKSLAAIADDSKKLPALFPADSKTGGDTAALPKIWEDKAKFDDLFAKLAAAATAAQGTIKDEASLKANIGGVLGNCKSCHDDFRAKKS [K34H], the denaturant m value worked out at 4.91 kcal/mol/M, the “denaturant midpoint” value amounted to 1.66 M and the unfolding free energy turned out to be 8.17 kcal/mol.

With MKLRIATIAGLVVLGSGFAVAQTDVIAQRKAILKQMGEATKPIAAMLKGEAKFDQAVVQKSLAAIADDSKKLPALFPADSKTGGDTAALPKIWEDKAKFDDLFAHLAAAATAAQGTIKDEASLKANIGGVLGNCKSCHDDFRAKKS [K105H], the denaturant m value amounted to 5.32 kcal/mol/M, the “denaturant midpoint” value came out at 1.11 M and the unfolding free energy is 5.89 kcal/mol.

On to MKLRIATIAGLVVLGSGFAVAQTDVIAQRKAILKQMGEATKPIAAMLKGEAKFDQAVVQKSLAAIADDSKKLPALFPADSKTGGDTHALPKIWEDKAKFDDLFAKLAAAATAAQGTIKDEASLKANIGGVLGNCKSCHDDFRAKKS [A87H], for which the denaturant m value was determined as 4.88 kcal/mol/M, the “denaturant midpoint” value was 1.39 M and the unfolding free energy is 6.79 kcal/mol.

On to MKLRIATIAGLVVLGSGFAVAQTDVIAQRKAILKQMGEATKPIAAMLKGEAKFDQAVVQKSLAAIADDSKKLPALFPADSKTGGDTAALPKIWEDKAKFDDLFAKLAAAATAAQGTIHDEASLKANIGGVLGNCKSCHDDFRAKKS [K118H], for which the denaturant m value worked out at 5.28 kcal/mol/M, the “denaturant midpoint” value was 1.29 M and the unfolding free energy came out at 6.8 kcal/mol.

As for MKLRIATIAGLVVLGSGFAVAQTDVIAQRKAILKQMGEATKPIAAMLKGEAHFDQAVVQKSLAAIADDSKKLPALFPADSKTGGDTAALPKIWEDKAKFDDLFAKLAAAATAAQGTIKDEASLKANIGGVLGNCKSCHDDFRAKKS [K52H], the denaturant m value is 5.04 kcal/mol/M, the “denaturant midpoint” value came out at 1.47 M and the unfolding free energy worked out at 7.41 kcal/mol.

As for MKLRIATIAGLVVLGSGFAVAQTDVIAQRKAILKQMGEATKPIAAMLKGEAKFDQAVVQKSLAAIADDSKKLPALFPAHSKTGGDTAALPKIWEDKAKFDDLFAKLAAAATAAQGTIKDEASLKANIGGVLGNCKSCHDDFRAKKS [D79H], the denaturant m value was found to be 4.8 kcal/mol/M, the “denaturant midpoint” value was found to be 1.4 M and the unfolding free energy was found to be 6.72 kcal/mol.

Consider MKLRIATIAGLVVLGSGFAVAQTDVIAQRKAILKQMGEATKPIAAMLKGEAKFDQAVVQKSLAAIADDSKKLPALFPADSKTGGDTAALPKIWEDKAKFDDLFAKLAAAATAAQGTIKDEASLKHNIGGVLGNCKSCHDDFRAKKS [A125H], for which the denaturant m value was 5.59 kcal/mol/M, the “denaturant midpoint” value turned out to be 1.09 M and the unfolding free energy amounted to 6.08 kcal/mol.
